Assay results as given in US20020045591A1, “Methods and therapeutic compositions for treating cancer” (priority 1998, published 2002).

Molecular target: Endogenous β-catenin of SW480 human colon carcinoma cells (human) (UniProt P35222)
Test: cell-based or functional assay

Endogenous β-catenin of SW480 human colon carcinoma cells (human), sequence (P35222 2-781): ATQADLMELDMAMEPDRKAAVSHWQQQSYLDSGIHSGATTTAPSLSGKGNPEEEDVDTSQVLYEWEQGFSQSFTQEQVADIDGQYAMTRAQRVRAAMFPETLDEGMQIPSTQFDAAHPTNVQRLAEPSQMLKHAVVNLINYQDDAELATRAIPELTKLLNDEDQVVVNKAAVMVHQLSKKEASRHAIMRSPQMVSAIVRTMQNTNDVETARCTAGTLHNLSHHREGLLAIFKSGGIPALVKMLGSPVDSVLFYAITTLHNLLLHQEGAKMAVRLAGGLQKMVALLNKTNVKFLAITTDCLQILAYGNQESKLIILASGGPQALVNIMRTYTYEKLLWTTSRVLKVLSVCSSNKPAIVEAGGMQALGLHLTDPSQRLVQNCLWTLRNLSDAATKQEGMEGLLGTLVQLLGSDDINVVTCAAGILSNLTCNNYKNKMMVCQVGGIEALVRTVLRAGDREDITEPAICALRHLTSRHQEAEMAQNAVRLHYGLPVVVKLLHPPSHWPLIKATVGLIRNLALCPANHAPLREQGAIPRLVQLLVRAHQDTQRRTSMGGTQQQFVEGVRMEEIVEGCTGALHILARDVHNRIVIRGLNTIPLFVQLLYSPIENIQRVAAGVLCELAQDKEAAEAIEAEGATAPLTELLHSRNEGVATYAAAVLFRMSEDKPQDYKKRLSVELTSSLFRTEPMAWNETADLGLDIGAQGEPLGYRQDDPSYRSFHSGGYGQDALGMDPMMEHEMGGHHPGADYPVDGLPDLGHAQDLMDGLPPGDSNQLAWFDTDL

Substance	inhibition of luciferase activity (LEF-1-driven transactivation) in SW480 cells	inhibition of TOPFLASH-responsive transcription (luciferase) in SW480 cells
Cytoplasmic tail of mouse E-cadherin (amino acids 735-884) fused to the C-terminus of GFP (from UniProt P09803 720-869)	75%	–
GFP-E72 (C-terminal 72 amino acids of mouse E-cadherin, residues 813-884, fused to the C-terminus of GFP) (from UniProt P09803 798-869)	60%	–
GFP-N71 (C-terminal 71 amino acids of N-cadherin, residues 842-912, fused to the C-terminus of GFP) (from UniProt B0KW95 836-906)	70%	–

The next lines start with the values.

inhibition of luciferase activity (LEF-1-driven transactivation) in SW480 cells	inhibition of TOPFLASH-responsive transcription (luciferase) in SW480 cells	Substance
80%	–	Cytoplasmic tail of N-cadherin (amino acids 752-912) fused to the C-terminus of GFP (from UniProt B2KI42 746-906)
–	50%	IL2R/N-cadherin chimera (extracellular and transmembrane domains of IL2Rα fused to the intracellular domain of N-cadherin, amino acids 752-912)
